The data set relates to MS2 coat protein. Nature of the data set: apparent KD of MS2 coat protein; designed switch direction (-1 OFF switch, 1 ON switch): -1; higher = weaker reporter binding. In outline: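 Apparent KD, taken as the median over clusters for each design, was obtained by curve-fitting normalised cluster fluorescence. Designed RNA switches had been transcribed on Illumina chips by stalled E. coli RNA polymerase and titrated with SNAP-549-labelled MS2 coat protein, doubling from 0.7 or 1.5 nM to 3 µM.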

[1] abbreviates: Eterna round: R95, input ligand: FMN 200 uM.
Setting [2] is: Eterna round: R95, input ligand: microRNA oligo, concentration not stated.
The mark [3] stands for this setting: Eterna round: R95, input ligand: none.
Setting [4] is: input ligand: microRNA oligo, concentration not stated.

For the sequence “AGGAAUGAAGGAUAUACAUGAGGAUCACCCAUGUAAAACAAGAGAUUUGAUGUAUAAUGUAGAAGGUCAAGAAG [JR_Exclusion3_Sub003] (puzzle: Exclusion 3)”, the “apparent KD of MS2 coat protein” value was 25.2 nM under setting [1], 30.5 nM under setting [2] and 35.5 nM under setting [3].

Regarding “GAAAAGAGAGGAUAUACAAGAAGAAAAGAAAAGAAAAGAAAACAUGAGGAUCACCCAUGUAGAAGGCUCAAAAG [Default title] (puzzle: Exclusion 2)”, the “apparent KD of MS2 coat protein” value came to 18.2 nM under setting [1], 12.7 nM under setting [2] and 20.3 nM under setting [3].

Turning to “GUCGUGCGGCUUUGCUGUACGAGUACAUGAGGAUCACCCAUGUAGGAUAUGGUUCGUUUUGCGUGCUAGAAGGGCGUGCGUUUU [Excl-NG3-LRO16] (Eterna round: R96, puzzle: Exclusion NG 3)”, the “apparent KD of MS2 coat protein” value (input ligand: FMN 200 uM) worked out at 22.4 nM, the “apparent KD of MS2 coat protein” value under setting [4] worked out at 17.3 nM and the “apparent KD of MS2 coat protein” value (input ligand: none) is 22.1 nM.

On to “GCGCAAACGCCAAAAGGCGAAACAACAUGAGGAUCACCCAUGUAGGAUAUCGAUUGCUUUGCAGUCGAGAAGGACAUGAUGCGC [JL ENG3 3.80 Mod 2] (Eterna round: R96, puzzle: Exclusion NG 3)”, for which the “apparent KD of MS2 coat protein” value (input ligand: FMN 200 uM) came out at 43.9 nM, the “apparent KD of MS2 coat protein” value under setting [4] amounted to 18.5 nM and the “apparent KD of MS2 coat protein” value (input ligand: none) stood at 20.8 nM.

Consider “CGGUGCUGAGGAUAUACAUGAGGAUCACCCAUGUGUUAUUGAUAGAAAACUGGCAGAUGUAGAAGGCGGUACUG [Mat - Exclusion 3 - Mod of JL D99] (puzzle: Exclusion 3)”, for which the “apparent KD of MS2 coat protein” value under setting [1] amounted to 80.5 nM, the “apparent KD of MS2 coat protein” value under setting [2] turned out to be 25.4 nM and the “apparent KD of MS2 coat protein” value under setting [3] stood at 24.9 nM.

“AGAAAUCUGUAGGAUAUGUUGAACACCGUGUACACAGAAGGGCAGACAUGAGGAUCACCCAUGUGGUGGGCCAG [Eternabot (L1) Solution 91] (Eterna round: R97, puzzle: Exclusion 6)”: the “apparent KD of MS2 coat protein” value (input ligand: FMN 200 uM) is 576 nM and the “apparent KD of MS2 coat protein” value (input ligand: none) worked out at 469 nM.

For the sequence “GUCAGACGAGGAUAUAAAUUUGAUAACAUGAGGAUCACCCAUGUGAUCGAUAGAUCAAAUUUAGAAGGUGUCUGAC [E5/7-B3] (Eterna round: R97, puzzle: Exclusion 5)”, the “apparent KD of MS2 coat protein” value (input ligand: FMN 200 uM) was determined as 487 nM and the “apparent KD of MS2 coat protein” value (input ligand: none) is 501 nM.

Consider “UAUAUAUAGUAAGGAUAUGUAUUUAUUUUAUCAACAGAAGGUACUGACAUGAGGAUCACCCAUGUUUUAGUGUGGGCAUGUAGA [JMF's solution 26] (Eterna round: R96, puzzle: Exclusion NG 1)”, for which the “apparent KD of MS2 coat protein” value reads like this: (input ligand: FMN 200 uM) 155 nM; under setting [4], 69.7 nM; (input ligand: none) 85.7 nM.

“CUGAGCAGACGGAAAUCCAACAUGAGGAUCACCCAUGUCUCAAAAGCUUUUUGCUCGUCUUAUCUUCCUCUGCUCUC [Cecelein] (puzzle: Sensor v3, turn-off variant 1)”: the “apparent KD of MS2 coat protein” value is, setting by setting: under setting [1], 12.9 nM; under setting [2], 16.8 nM; under setting [3], 11.8 nM.

For the sequence “CCGCAAAUGCAGGAUAUCGUAUCGGAUACGAUACGAGAAGGGCGAACAUGAGGAUCACCCAUGUGUCCUAGCGG [Fiskers Ex 6 - 40] (puzzle: Exclusion 6)”, the “apparent KD of MS2 coat protein” value under setting [1] amounted to 34.7 nM, the “apparent KD of MS2 coat protein” value under setting [2] worked out at 40.3 nM and the “apparent KD of MS2 coat protein” value under setting [3] turned out to be 51.6 nM.

Turning to “CCGCAUAUGCAGGAUAUCGUAUCGGAAACGAUACGAGAAGGGUAAACAUGAGGAUCACCCAUGUUCCUUAACGG [Fiskers Ex 6 - 28] (puzzle: Exclusion 6)”, under setting [2], the “apparent KD of MS2 coat protein” value was 14.6 nM.

Regarding “CUCUUGUGAGGAUAUCGAAGAAAAGAAAAGAAAGAAAAGAACGAGAAGGCACAUGAGGAUCACCCAUGUAAGAA [EteRNA is fun!] (Eterna round: R96, puzzle: Exclusion 4)”, the “apparent KD of MS2 coat protein” value stood at 127 nM (input ligand: FMN 200 uM), 30.4 nM under setting [4] and 39.4 nM (input ligand: none).

Turning to “UUGAAGUCGUCAGGAUAUAGUUUUAAUGUCAUGCGUAUGUUCUUACAUGAGGAUCACCCAUGUCGCUAGAAGGGACUAAAGAUU [JR_ExcNG2_Sub010] (Eterna round: R96, puzzle: Exclusion NG 2)”, the “apparent KD of MS2 coat protein” value is, setting by setting: (input ligand: FMN 200 uM) 43.9 nM; under setting [4], 33.4 nM; (input ligand: none) 44.4 nM.

Turning to “GUCGUGCAGCUUUGCUGUACGAGUACAUGAGGAUCACCCAUGUAGGAUAUGGUACGCUUUGCGUGCUAGAAGGAUAUGUGUAGC [salish99_ExNG3_r04_503] (Eterna round: R96, puzzle: Exclusion NG 3)”, the “apparent KD of MS2 coat protein” value (input ligand: FMN 200 uM) is 44.8 nM, the “apparent KD of MS2 coat protein” value under setting [4] amounted to 29 nM and the “apparent KD of MS2 coat protein” value (input ligand: none) was found to be 37.1 nM.

“CUUUUGUGAGGAUAUCAGUAGUUAAUAAAUAAAAUUACUACUGAGAAGGCACAUGAGGAUCACCCAUGUUCCUC [salish99_ex3_r3_075] (puzzle: Exclusion 4)”: the “apparent KD of MS2 coat protein” value under setting [2] stood at 39.4 nM.

As for “AUAUUACGAGGAUAUCGUUUUUAUCACAUGAGGAUCACCCAUGUAAUUUAUGUUUCGUUUCGAGAAGGCGUAAGUU [JR_E5_Sub068] (puzzle: Exclusion 5)”, the “apparent KD of MS2 coat protein” value under setting [2] was 17.8 nM.

Consider “AUUAAACAUGUAGGAUAUGCGUGGCGAAGCUAUGCAGAAGGACAUGAGGAUCACCCAUGUAAAAGCGUCUGCGUACAGAUGCAA [Mat - Exclusion NG 1 - Mod of JL - D84] (Eterna round: R96, puzzle: Exclusion NG 1)”, for which the “apparent KD of MS2 coat protein” value is 468 nM (input ligand: FMN 200 uM), 28 nM under setting [4] and 38.9 nM (input ligand: none).

As to “UAGCAUUGCCUUUGGUAGUGCAUUACAUGAGGAUCACCCAUGUAGGAUAUGGUAGGCUUUGCUUACCAGAAGGACAUGAUAAUU [JL ENG3 1.05] (Eterna round: R96, puzzle: Exclusion NG 3)”, the “apparent KD of MS2 coat protein” value was 135 nM (input ligand: FMN 200 uM), 38.9 nM under setting [4] and 48.7 nM (input ligand: none).

With “UCUAGUUCAGGAUAUGUAGAUUUUAACAUGAGGAUCACCCAUGUAGAUCCUGAAUUAGCUACAGAAGGGAACAUUU [Mod of Brourd 2 - Jieux - Exclusion 5] (Eterna round: R97, puzzle: Exclusion 5)”, the “apparent KD of MS2 coat protein” value came to 18.1 nM (input ligand: FMN 200 uM) and 13.3 nM (input ligand: none).

In the case of “GCAUGGAAAGUGAGGAUAUACCACUGGAUACAGUGGUAGAAGGCACAUGAGGAUCACCCAUGUUCCUACCAUGC [Fiskers BMX 4 - 39] (puzzle: Brourd's mod of Exclusion 4)”, the “apparent KD of MS2 coat protein” value under setting [2] is 15 nM.

With “AUUUAACAUGAGGAUCACCCAUGUGAGGAUAUGUCCAUUUUAAACAAAUAGGAUAUGGACAGAAGGCACACCGG [JR_Exclusion1_Sub007] (puzzle: Exclusion 1)”, under setting [2], the “apparent KD of MS2 coat protein” value was 219 nM.

In the case of “UUAUUAUAUGUAGGAUAUGCAUAUUGUUGUUAUGCAGAAGGACAUGAGGAUCACCCAUGUAUAUUAUUGUUAUAUAUUAUAUAU [Title] (Eterna round: R96, puzzle: Exclusion NG 1)”, the “apparent KD of MS2 coat protein” value under setting [4] worked out at 20.1 nM.

As to “UGACGUCAUGUCAGGAUAUAGGCGAUGCGUGUCUUCUAGAAGGGACAUGAGGAUCACCCAUGUAAACUUUUGGU [Eternabot (L1) Solution 56] (Eterna round: R97, puzzle: Brourd's mod of Exclusion 4)”, the “apparent KD of MS2 coat protein” value came to 136 nM (input ligand: FMN 200 uM) and 148 nM (input ligand: none).

Consider “UUCGUGCAGCUUUGCUGUACGCGUACAUGAGGAUCACCCAUGUAGGAUAUGGUAGGCUUUGCUUACUAGAAGGAUAGAGUGAUC [JL EXNG3 1.29] (Eterna round: R96, puzzle: Exclusion NG 3)”, for which the “apparent KD of MS2 coat protein” value turned out to be 80.7 nM (input ligand: FMN 200 uM), 67.8 nM under setting [4] and 95.7 nM (input ligand: none).

“GGCAAUAACGAGGAUAUCCUAUGGGAAACCAUAGGAGAAGGUGUAACAUGAGGAUCACCCAUGUUCCUCAAGCC [Mat - Exclusion 6 - Eli Mod - D67] (puzzle: Exclusion 6)”: the “apparent KD of MS2 coat protein” value under setting [1] was determined as 43.3 nM, the “apparent KD of MS2 coat protein” value under setting [2] stood at 34.7 nM and the “apparent KD of MS2 coat protein” value under setting [3] was found to be 39.8 nM.

In the case of “GACCUGGCGAAGGAUAUCUGGAGGGAGUACAUCAGAGAAGGUCGCACAUGAGGAUCACCCAUGUUUGCAAUAGC [Eternabot (Original) Solution 22] (Eterna round: R97, puzzle: Exclusion 6)”, the “apparent KD of MS2 coat protein” value stood at 25.7 nM (input ligand: FMN 200 uM) and 21.6 nM (input ligand: none).

Regarding “GGCAUGUAAGGAUAUGCCACUGAGUGCUUUGCGCUCAGUAAGCAGAAGGUACAUGAGGAUCACCCAUGUGAUAA [jl-ex4-4.54 ViennaUCT mod] (Eterna round: R97, puzzle: Exclusion 4)”, the “apparent KD of MS2 coat protein” value runs as follows: (input ligand: FMN 200 uM) 136 nM; (input ligand: none) 653 nM.

Take “ACGAAGCUUUUUGCUCGUCACAUGAGGAUCACCCAUGUGGGCCCGGGCGCCCGGGCCGACAUCCCACUAGGACAUGU [#2] (Eterna round: R97, puzzle: Sensor, turn-off variant 1)”: the “apparent KD of MS2 coat protein” value was 104 nM (input ligand: FMN 200 uM) and 122 nM (input ligand: none).

“GAAAAUAGUGAGGAUAUAUCACGGAUACCCGAGAUAGAAGGCACUACAUGAGGAUCACCCAUGUUCGGGUGUCC [Areleon] (Eterna round: R97, puzzle: Exclusion 6)”: the “apparent KD of MS2 coat protein” value by setting is: (input ligand: FMN 200 uM) 107 nM; (input ligand: none) 79.3 nM.

As for “AAUAACAGAGGAUAUACUGUUUUAUGUAUUUAUUAUUUUAAACAUGAGGAUCACCCAUGUAGAAGGCUGAAUGA [JMF 55] (puzzle: Exclusion 2)”, the “apparent KD of MS2 coat protein” value under setting [2] was found to be 20.7 nM.

With “GAAAAGGUAGGAUAUACGAAAAAAAAGGGUAGUAAAAAAACACAUGAGGAUCACCCAUGUAGAAGGACCAAAAG [salish99_ex2_r3_079] (puzzle: Exclusion 2)”, the “apparent KD of MS2 coat protein” value reads like this: under setting [1], 35.7 nM; under setting [2], 20.9 nM; under setting [3], 18.6 nM.

The values are drawn from the supplement of paper PMC9170038.
